Source: the supplement of paper PMC9112550, “Optimization of the antimicrobial peptide Bac7 by deep mutational scanning” (BMC Biology, 2022)

Test system: Escherichia coli TOP10
Assay: shrunken log2 fold change of peptide-encoding DNA abundance (4.5 h post-induction vs induction); higher = less antimicrobial activity (less host growth inhibition)
Settings: time post-induction: 4.5 h; library: site-saturation at positions 5, 18, 19, 20
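Also: peptides expressed intracellularly from a pBAD plasmid library in pooled LB shake-flask culture, induced with 0.3% L-arabinose, DNA abundance read by NGS, three biological replicates, DESeq2 with apeglm shrinkage.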

Row | Sequence | shrunken log2 fold change
1 | RRIRRRPPRLPRPRPRPRRAPRP | 0.655
2 | RRIRRRPPRLPRPRPRPRRHPRP | 0.218
3 | RRIRRRPPRLPRPRPRPRRSPRP | 0.516
4 | RRIRRRPPRLPRPRPRPRSQPRP | 0.533
5 | RRIRRRPPRLPRPRPRPRSVPRP | 0.234
6 | RRIRRRPPRLPRPRPRPRVGPRP | 0.68
7 | RRIRRRPPRLPRPRPRPRVRPRP | 0.649
8 | RRIRRRPPRLPRPRPRPRYLPRP | -0.0373
9 | RRIRRRPPRLPRPRPRPRYNPRP | -0.132
10 | RRIRRRPPRLPRPRPRPSAFPRP | 1.27
11 | RRIRRRPPRLPRPRPRPSCFPRP | -0.0896
12 | RRIRRRPPRLPRPRPRPSCMPRP | 0.019
13 | RRIRRRPPRLPRPRPRPSDAPRP | -0.0697
14 | RRIRRRPPRLPRPRPRPSDCPRP | -0.0825
15 | RRIRRRPPRLPRPRPRPSDNPRP | -0.134
16 | RRIRRRPPRLPRPRPRPSDRPRP | -0.153
17 | RRIRRRPPRLPRPRPRPSEPPRP | 0.115
18 | RRIRRRPPRLPRPRPRPSFGPRP | 0.365
19 | RRIRRRPPRLPRPRPRPSFSPRP | -0.411
20 | RRIRRRPPRLPRPRPRPSFVPRP | -0.0435
21 | RRIRRRPPRLPRPRPRPSGCPRP | 0.212
22 | RRIRRRPPRLPRPRPRPSHCPRP | -0.041
23 | RRIRRRPPRLPRPRPRPSHFPRP | -0.262
24 | RRIRRRPPRLPRPRPRPSHMPRP | 0.157
25 | RRIRRRPPRLPRPRPRPSIIPRP | -0.332

Row | Sequence | shrunken log2 fold change
26 | RRIRRRPPRLPRPRPRPSINPRP | -0.13
27 | RRIRRRPPRLPRPRPRPSKAPRP | -0.0721
28 | RRIRRRPPRLPRPRPRPSKEPRP | 0.137
29 | RRIRRRPPRLPRPRPRPSLCPRP | 1.05
30 | RRIRRRPPRLPRPRPRPSLQPRP | 0.334
31 | RRIRRRPPRLPRPRPRPSLTPRP | -0.0192
32 | RRIRRRPPRLPRPRPRPSMFPRP | -0.0509
33 | RRIRRRPPRLPRPRPRPSNWPRP | -0.192
34 | RRIRRRPPRLPRPRPRPSPDPRP | 0.608
35 | RRIRRRPPRLPRPRPRPSQLPRP | 0.448
36 | RRIRRRPPRLPRPRPRPSRTPRP | 0.141
37 | RRIRRRPPRLPRPRPRPSSPPRP | 0.00935
38 | RRIRRRPPRLPRPRPRPSTEPRP | 0.664
39 | RRIRRRPPRLPRPRPRPSTHPRP | 0.0934
40 | RRIRRRPPRLPRPRPRPSVCPRP | 0.0243
41 | RRIRRRPPRLPRPRPRPSVEPRP | 0.0256
42 | RRIRRRPPRLPRPRPRPTACPRP | 0.636
43 | RRIRRRPPRLPRPRPRPTAFPRP | 1.31
44 | RRIRRRPPRLPRPRPRPTAGPRP | 0.109
45 | RRIRRRPPRLPRPRPRPTAVPRP | 0.606
46 | RRIRRRPPRLPRPRPRPTCVPRP | 0.455
47 | RRIRRRPPRLPRPRPRPTDEPRP | 0.355
48 | RRIRRRPPRLPRPRPRPTDPPRP | 0.246
49 | RRIRRRPPRLPRPRPRPTECPRP | 0.0801
50 | RRIRRRPPRLPRPRPRPTEYPRP | 0.0398

Row | Sequence | shrunken log2 fold change
51 | RRIRRRPPRLPRPRPRPTFCPRP | 0.0676
52 | RRIRRRPPRLPRPRPRPTFHPRP | 0.0529
53 | RRIRRRPPRLPRPRPRPTFVPRP | 0.998
54 | RRIRRRPPRLPRPRPRPTFWPRP | 0.436
55 | RRIRRRPPRLPRPRPRPTGQPRP | 0.675
56 | RRIRRRPPRLPRPRPRPTHKPRP | 0.783
57 | RRIRRRPPRLPRPRPRPTIEPRP | 0.212
58 | RRIRRRPPRLPRPRPRPTIWPRP | 0.251
59 | RRIRRRPPRLPRPRPRPTKSPRP | 0.226
60 | RRIRRRPPRLPRPRPRPTMKPRP | 0.286
61 | RRIRRRPPRLPRPRPRPTMLPRP | 0.0234
62 | RRIRRRPPRLPRPRPRPTNKPRP | 0.149
63 | RRIRRRPPRLPRPRPRPTNSPRP | 1.15
64 | RRIRRRPPRLPRPRPRPTPHPRP | 0.884
65 | RRIRRRPPRLPRPRPRPTPIPRP | 1.03
66 | RRIRRRPPRLPRPRPRPTRYPRP | 0.337
67 | RRIRRRPPRLPRPRPRPTSCPRP | -0.108
68 | RRIRRRPPRLPRPRPRPTSLPRP | 0.0087
69 | RRIRRRPPRLPRPRPRPTYHPRP | 0.648
70 | RRIRRRPPRLPRPRPRPTYLPRP | -0.348
71 | RRIRRRPPRLPRPRPRPTYWPRP | -0.144
72 | RRIRRRPPRLPRPRPRPVATPRP | 1.15
73 | RRIRRRPPRLPRPRPRPVCEPRP | 0.935
74 | RRIRRRPPRLPRPRPRPVDGPRP | 0.576
75 | RRIRRRPPRLPRPRPRPVEVPRP | 0.057
